Blank lines part the entries; values can stand above or below the binder they belong to.
How the values were obtained:
human IL-13 [1] = molecular target: T1, human IL-13 (human, UniProt P35225 35-146); test: cell-based or functional assay
human IL-13 [2] = molecular target: T1, human IL-13; test: cell-based or functional assay; remark: listed apart in the source
human IL-4 [3] = molecular target: T2, human IL-4 (human, UniProt P05112 25-153); test: SPR Biacore T100; captured on Protein A (CM5), human IL4 analyte; footnote: on- and off-rate not measurable
T2 construct: also called recombinant E. coli-expressed human IL-4
T2 sequence (looked up): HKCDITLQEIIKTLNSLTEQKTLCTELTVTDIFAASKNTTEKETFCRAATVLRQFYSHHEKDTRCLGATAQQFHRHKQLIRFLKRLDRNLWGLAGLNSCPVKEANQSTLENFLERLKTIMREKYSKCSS

human IL-4 [4] = molecular target: T2, human IL-4; test: SPR Biacore T100; mAbdAb captured on Protein A (CM5), human IL4 analyte
Method: (§1) All binding curves were double referenced with a OnM injection (i.e. buffer alone).
(§2) Regeneration of the Protein A surface was with 50 mM NaOH. The assay was run at 25° C. using HBS-EP as running buffer. The data was fitted to 1:1 model inherent to the Biacore T100 analysis software.

cyno IL-13 = molecular target: T3, cyno IL-13 (cynomolgus, UniProt Q0PW92 21-132); test: SPR Biacore T100; captured on Protein A (CM5), cyno IL13 analyte; 'Impossible off-rates', beyond sensitivity
T3 construct: also called cynomolgus IL-13
T3 sequence (Q0PW92 entry or part of it): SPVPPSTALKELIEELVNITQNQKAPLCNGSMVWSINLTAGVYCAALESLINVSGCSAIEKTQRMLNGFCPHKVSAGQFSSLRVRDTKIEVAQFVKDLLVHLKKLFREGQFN
Method: as §1, §2

T1 sequence (P35225 other isoform, or with tags, fused parts or gaps limits assumed): as the sequence (Q0PW92 entry or part of it) above, with S1G, K10R, V42M, N67S, R83H, V100L, Q110R counted along it

- ND50 human IL-13, TF-1 cell proliferation bioassay (human IL-13 [1]): 2.52 nM
- Mean ND50, TF-1 cell proliferation bioassay (human IL-13 [2]): 5.01 nM
B1: A1L1 (antibody, human IgG1, kappa, V domains shown)
VH: QVQLVQSGAEVKKPGSSVKVSCKASGFYIKDTYMHWVRQAPGQGLEWMGTIDPANGNTKYVPKFQGRVTITADESTSTAYMELSSLRSEDTAVYYCARSIYDDYHYDDYYAMDYWGQGTLVTVSS
VL: DIVMTQSPLSLPVTPGEPASISCRSSQNIVHINGNTYLEWYLQKPGQSPRLLIYKISDRFSGVPDRFSGSGSGTDFTLKISRVEADDVGIYYCFQGSHVPWTFGQGTKLEIKR

- Mean ND50, TF-1 cell proliferation bioassay (human IL-13 [2]): 1.01 nM
B2: BPC1086 (bispecific antibody, human IgG1, kappa)
heavy: not shown
light: DIVMTQSPLSLPVTPGEPASISCRSSQNIVHINGNTYLEWYLQKPGQSPRLLIYKISDRFSGVPDRFSGSGSGTDFTLKISRVEADDVGIYYCFQGSHVPWTFGQGTKLEIKRTVAAPSVFIFPPSDEQLKSGTASVVCLLNNFYPREAKVQWKVDNALQSGNSQESVTEQDSKDSTYSLSSTLTLSKADYEKHKVYACEVTHQGLSSPVTKSFNRGEC

- kon (human IL-4 [3]): 1.14e+08 M⁻¹ s⁻¹
B3: BPC1112 (bispecific antibody, human IgG1, kappa)
heavy: not shown
light: B2 light
notes: also called 829H-(TVAAPS)2GS-154 (89K)

- Kd (human IL-4 [4]): 55 pM
- koff (human IL-4 [4]): 0.000211 s⁻¹
- kon (human IL-4 [4]): 3.84e+06 M⁻¹ s⁻¹
B4: BPC1093 (bispecific antibody, human IgG1, kappa)
heavy: not shown
light: B2 light
notes: also called 829H-(TVAAPS)2GS-154 (89M)

- Kd (cyno IL-13): 15.8 pM
- koff (cyno IL-13): 5.07e-06 s⁻¹
B5: BPC3214 (bispecific antibody, human IgG1, kappa)
heavy: not shown
light: DIQMTQSPSSLSASVGDRVTITCRSSQNIVHINGNTYLEWYQQKPGKAPKLLIYKISDRFSGVPSRFSGSGSGTDFTLTISSLQPEDFATYYCFQGSHVPWTFGQGTKLEIKRTVAAPSVFIFPPSDEQLKSGTASVVCLLNNFYPREAKVQWKVDNALQSGNSQESVTEQDSKDSTYSLSSTLTLSKADYEKHKVYACEVTHQGLSSPVTKSFNRGEC

Reference: US20100303821A1 (GlaxoSmithKline, published 2010)
